Measured values as given in the supplement of paper PMC7877785.
± gives the uncertainty stated by the source.

Test: self-splicing fitness, log relative to wild type (ln ratio); higher = more splicing; Tetrahymena group I intron in knt gene, E. coli kanamycin selection, DiMSum; sequences stand for … in CUCUCU…GGAGGGAAAAGUUAUCAGGCAUGCACCUGGUAGCUAGUCUUUAAACCAAUAGAUUGCAUCGGUUUAAAAGGCAAGACCGUCAAAUUGCGGGAAAGGGGUCAACAGCCGUUCAGUACCAAGUCUCAGGGGAAACUUUGAGAUGGCCUUGCAAAGGGUAUGGUAAUAAGCUGACGGACAUGGUCCUAACCACGCAGCCAAGUCCUAAGUCAACAGAUCUUCUGUUGAUAUGGAUGCAGUUCACAGACUAAAUGUCGGUCGGGGAAGAUGUAUUCUUCUCAUAAGAUAUAGUCGGACCUCUCCUUAAUGGGAGCUAGCGGAUGAAGUGAUGCAACACUGGAGCCGCUGGGAACUAAUUUGUAUGCGAAAGUAUAUUGAUUAGUUUUGGAGUACUCGUGGUCG
Method in brief: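 Pooled colonies went to amplicon sequencing on an Illumina HiSeq 2500 after six replicate transformations. The plates were LB agar with 100 μg/mL carbenicillin, 50 μM IPTG and 0.2% rhamnose, with or without 25 μg/mL kanamycin, incubated overnight at 37°C or 30°C. The E. coli BL21(DE3) library had all eight P1ex-region intron nucleotides randomised, the intron placed in the knt kanamycin-resistance gene on pET-22b(+). DiMSum fitness is the error-weighted combination of replicate fold changes, kanamycin against none, normalised to wild type.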

Sequence	self-splicing fitness (ln) (30 °C)	self-splicing fitness (ln) (37 °C)
UUCGAGCAAUAUUACGACUA	0.544 ± 0.39	-1.15 ± 0.24
UUCGAGCAAUAUUACGAGGU	-2.94 ± 0.48	-1.52 ± 0.43
UUCGAGCAAUAUUACGCAUG	-1.2 ± 0.23	-2.21 ± 0.3
UUCGAGCAAUAUUACGCUCC	-3.27 ± 0.41	–
UUCGAGCAAUAUUACGCUGC	-3.44 ± 0.44	–
UUCGAGCAAUAUUACGGCCC	-1.75 ± 0.4	–
UUCGAGCAAUAUUACGGGAG	-3.53 ± 0.2	-2.84 ± 0.22
UUCGAGCAAUAUUACGGGGU	-2.88 ± 0.35	–
UUCGAGCAAUAUUACGGUAC	-3.39 ± 0.27	-2.62 ± 0.44
UUCGAGCAAUAUUACGGUUG	-3.78 ± 0.19	-2.47 ± 0.16
UUCGAGCAAUAUUACGUGCA	-2.18 ± 0.19	-1.4 ± 0.16
UUCGAGCAAUAUUACGUGCG	-3.18 ± 0.23	-2.18 ± 0.26
UUCGAGCAAUAUUACGUGUG	-2.52 ± 0.13	-1.59 ± 0.12
UUCGAGCAAUAUUACGUUAG	-4.22 ± 0.42	-3.37 ± 0.3
UUCGAGCAAUAUUACGUUGA	-2.77 ± 0.26	-2 ± 0.21
UUCUAGCAAUAUUACGAACC	–	-1.8 ± 0.33
UUCUAGCAAUAUUACGAACG	-3.61 ± 0.36	-1.15 ± 0.27
UUCUAGCAAUAUUACGACGU	-1.89 ± 0.12	-1.12 ± 0.1
UUCUAGCAAUAUUACGACUC	-3.11 ± 0.31	-0.392 ± 0.14
UUCUAGCAAUAUUACGAGAA	-2.54 ± 0.29	-2.11 ± 0.29
UUCUAGCAAUAUUACGAGCA	-0.992 ± 0.089	-0.124 ± 0.085
UUCUAGCAAUAUUACGAUAG	–	-2.05 ± 0.36
UUCUAGCAAUAUUACGAUCU	-2.84 ± 0.34	-2.52 ± 0.27
UUCUAGCAAUAUUACGAUGC	-2.12 ± 0.3	-2.86 ± 0.38
UUCUAGCAAUAUUACGAUUG	-3.24 ± 0.31	-1.94 ± 0.21
UUCUAGCAAUAUUACGCAAU	-2.27 ± 0.22	-2.21 ± 0.32

Sequence	self-splicing fitness (ln) (30 °C)	self-splicing fitness (ln) (37 °C)
UUCUAGCAAUAUUACGCACC	-2.54 ± 0.18	-1.94 ± 0.23
UUCUAGCAAUAUUACGCAGA	-2.04 ± 0.32	-1.1 ± 0.23
UUCUAGCAAUAUUACGCGUA	-1.15 ± 0.25	-0.575 ± 0.21
UUCUAGCAAUAUUACGCGUU	-2.47 ± 0.15	-1.9 ± 0.13
UUCUAGCAAUAUUACGCUCU	-1.9 ± 0.15	-1.77 ± 0.15
UUCUAGCAAUAUUACGCUUG	-4.24 ± 0.33	-2.67 ± 0.22
UUCUAGCAAUAUUACGGAGG	-3.17 ± 0.34	–
UUCUAGCAAUAUUACGGAUC	-2.3 ± 0.21	-0.989 ± 0.31
UUCUAGCAAUAUUACGGCGA	-0.698 ± 0.14	0.493 ± 0.18
UUCUAGCAAUAUUACGGGAU	-3.72 ± 0.29	-2.37 ± 0.3
UUCUAGCAAUAUUACGGUCG	-0.638 ± 0.067	0.00892 ± 0.09
UUCUAGCAAUAUUACGGUCU	–	-3.7 ± 0.36
UUCUAGCAAUAUUACGGUUU	-2.05 ± 0.11	-1.52 ± 0.12
UUCUAGCAAUAUUACGUAAC	-3.19 ± 0.33	-1.32 ± 0.27
UUCUAGCAAUAUUACGUAGU	–	-1.6 ± 0.24
UUCUAGCAAUAUUACGUAUA	-1.28 ± 0.19	-0.787 ± 0.25
UUCUAGCAAUAUUACGUUGU	-3.15 ± 0.16	-2.75 ± 0.18
UUGAAGCAAUAUUACGAAGG	-1.42 ± 0.13	-0.248 ± 0.17
UUGAAGCAAUAUUACGACAA	0.222 ± 0.087	0.511 ± 0.12
UUGAAGCAAUAUUACGAGCA	-0.381 ± 0.12	0.224 ± 0.14
UUGAAGCAAUAUUACGCCAU	-1.71 ± 0.086	-1.56 ± 0.12
UUGAAGCAAUAUUACGCCGC	–	-2.1 ± 0.43
UUGAAGCAAUAUUACGCGGA	-1.12 ± 0.12	-0.506 ± 0.14
UUGAAGCAAUAUUACGCUCC	-4.04 ± 0.29	-3.02 ± 0.31
UUGAAGCAAUAUUACGGAAU	-3.36 ± 0.14	-1.15 ± 0.12
